Measured values taken from patent US6028053A, “Peptide inhibitors of a phosphotyrosine-binding domain containing protein” (Mount Sinai Hospital Corporation, priority 1998, dated 2000).
Square brackets hold non-standard residues; d marks the D form. Ends that are not written are not given here. pY = N[C@@H](Cc1ccc(OP(=O)(O)O)cc1)C(=O)O

How the values were obtained:
[1] = molecular target: GST-Shc PTB domain fusion protein (human) (UniProt P29353); experiment: SPR (Biacore) competition, Table 1
[2] = molecular target: GST-Shc PTB domain fusion protein (human) (UniProt P29353); experiment: not stated in Table 2; the same number as the IC50 of Table 1
[3] = molecular target: GST-Shc PTB domain fusion protein (human) (UniProt P29353); experiment: not stated in Table 2; presumably as the IC50 of Table 1
[4] = molecular target: GST-Shc PTB domain fusion protein (human) (UniProt P29353); experiment: SPR (Biacore) competition, Table 1; remark: listed apart in the source
[5] = molecular target: GST-Shc PTB domain fusion protein (human) (UniProt P29353); experiment: competition with EGF-R for GST-ShcB beads, dose response, anti-phospho-Tyr blot

GST-Shc PTB domain fusion protein (human), sequence (P29353 111-319 limits assumed): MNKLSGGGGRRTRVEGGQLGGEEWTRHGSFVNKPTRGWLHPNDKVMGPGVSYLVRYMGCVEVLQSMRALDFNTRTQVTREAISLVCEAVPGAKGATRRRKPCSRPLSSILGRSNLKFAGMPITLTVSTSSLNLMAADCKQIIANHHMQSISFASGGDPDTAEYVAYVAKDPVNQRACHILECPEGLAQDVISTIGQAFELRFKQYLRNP

Wt NGF receptor phosphopeptide His-Ile-Ile-Glu-Asn-Pro-Gln-P.Tyr-Phe-Ser-Asp
fold increase of the affinity against the peptide with Ala at -2 [1]: 10 fold
value printed beside the sequence without a heading [2]: 175 nM

IENPQ[pY]FSD [Trk wild type truncated phosphopeptide IENPQpYFSD]
value printed beside the sequence without a heading [3]: 4 µM

HAAENPQ[pY]FSD [Ala-6, Ala-5 NGF receptor peptide H-A-A-E-N-P-Q-p.Y-F-S-D]
fold lower affinity against a phosphopeptide with an Ile at either position -6 or -5 [4]: 3 fold

B1: C-1, Cyclo-(IENPQpYFSPG) (peptide)
peptide: cyclo(IENPQ[pY]FSPG)
SMILES: CC[C@H](C)[C@@H]1NC(=O)CNC(=O)[C@@H]2CCCN2C(=O)[C@H](CO)NC(=O)[C@H](Cc2ccccc2)NC(=O)[C@H](Cc2ccc(OP(=O)(O)O)cc2)NC(=O)[C@H](CCC(N)=O)NC(=O)[C@@H]2CCCN2C(=O)[C@H](CC(N)=O)NC(=O)[C@H](CCC(=O)O)NC1=O
percent inhibition at 100 µM [5]: 50%
